{"source": "patent US20110212108A1", "about": "“NEUREGULIN/ERBB SIGNALING AND INTEGRIN” (THE REGENTS OF THE UNIVERSITY OF CALIFORNIA, priority 2008, published 2011)", "molecules": {"B1": {"name": "WT NRG1α (175-241): wild type human neuregulin 1 fragment, residues 175-241 of SEQ ID NO:4 (SEQ ID NO:5), entire EGF-like motif and α domain (protein)", "chain": "GTSHLVKCAEKEKTFCVNGGECFMVKDLSNPSRYLCKCQPGFTGARCTENVPMKVQNQEKAEELYQK", "modifications": "integrin-binding site within human neuregulin, residues 175-241of human neuregulin 1alpha, long version"}, "B2": {"name": "3KE (175-241): NRG1α (175-241) with Lys181/Lys185/Lys187 mutated to Glu, SEQ ID NO:6 (3KE, long version) (protein)", "chain": "B1 chain with K7E, K11E, K13E", "modifications": "integrin-binding site within human neuregulin, residues 175-241of human neuregulin 1alpha, long version, 3KE mutant"}}, "key": {"integrin αvβ3": {"target": "T1, integrin αvβ3 (Homo sapiens, UniProt P05106+P06756)", "T1 construct": "Soluble recombinant integrin αvβ3 (5 μg/ml) was added to the wells; made in house", "T1 sequence (P06756 31-992 limits assumed)": "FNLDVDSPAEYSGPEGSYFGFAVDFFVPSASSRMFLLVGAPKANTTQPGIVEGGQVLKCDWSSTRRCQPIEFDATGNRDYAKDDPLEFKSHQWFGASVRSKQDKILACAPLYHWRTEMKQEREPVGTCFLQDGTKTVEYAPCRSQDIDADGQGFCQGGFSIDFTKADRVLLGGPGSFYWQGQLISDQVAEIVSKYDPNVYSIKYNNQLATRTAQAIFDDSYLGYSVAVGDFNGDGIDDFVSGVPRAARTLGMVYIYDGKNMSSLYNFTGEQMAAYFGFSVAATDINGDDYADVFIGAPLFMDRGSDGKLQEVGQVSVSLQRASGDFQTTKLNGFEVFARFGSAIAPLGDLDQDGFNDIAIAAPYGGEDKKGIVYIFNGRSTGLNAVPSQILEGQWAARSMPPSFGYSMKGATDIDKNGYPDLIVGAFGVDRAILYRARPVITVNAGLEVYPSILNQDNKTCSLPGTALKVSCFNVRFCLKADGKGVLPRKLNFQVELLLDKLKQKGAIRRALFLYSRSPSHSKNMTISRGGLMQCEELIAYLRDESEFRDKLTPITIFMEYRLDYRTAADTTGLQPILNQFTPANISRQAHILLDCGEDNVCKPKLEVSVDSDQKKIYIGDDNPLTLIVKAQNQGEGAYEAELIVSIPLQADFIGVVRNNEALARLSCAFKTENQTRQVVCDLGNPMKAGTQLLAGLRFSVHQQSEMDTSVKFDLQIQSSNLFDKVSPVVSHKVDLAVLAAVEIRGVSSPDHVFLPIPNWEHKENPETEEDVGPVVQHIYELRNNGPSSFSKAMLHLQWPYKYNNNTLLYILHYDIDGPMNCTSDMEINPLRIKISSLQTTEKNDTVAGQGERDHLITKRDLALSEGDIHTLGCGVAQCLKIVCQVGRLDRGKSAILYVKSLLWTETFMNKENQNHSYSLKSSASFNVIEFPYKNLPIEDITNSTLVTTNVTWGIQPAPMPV", "T1 sequence (P05106 27-718 limits assumed)": "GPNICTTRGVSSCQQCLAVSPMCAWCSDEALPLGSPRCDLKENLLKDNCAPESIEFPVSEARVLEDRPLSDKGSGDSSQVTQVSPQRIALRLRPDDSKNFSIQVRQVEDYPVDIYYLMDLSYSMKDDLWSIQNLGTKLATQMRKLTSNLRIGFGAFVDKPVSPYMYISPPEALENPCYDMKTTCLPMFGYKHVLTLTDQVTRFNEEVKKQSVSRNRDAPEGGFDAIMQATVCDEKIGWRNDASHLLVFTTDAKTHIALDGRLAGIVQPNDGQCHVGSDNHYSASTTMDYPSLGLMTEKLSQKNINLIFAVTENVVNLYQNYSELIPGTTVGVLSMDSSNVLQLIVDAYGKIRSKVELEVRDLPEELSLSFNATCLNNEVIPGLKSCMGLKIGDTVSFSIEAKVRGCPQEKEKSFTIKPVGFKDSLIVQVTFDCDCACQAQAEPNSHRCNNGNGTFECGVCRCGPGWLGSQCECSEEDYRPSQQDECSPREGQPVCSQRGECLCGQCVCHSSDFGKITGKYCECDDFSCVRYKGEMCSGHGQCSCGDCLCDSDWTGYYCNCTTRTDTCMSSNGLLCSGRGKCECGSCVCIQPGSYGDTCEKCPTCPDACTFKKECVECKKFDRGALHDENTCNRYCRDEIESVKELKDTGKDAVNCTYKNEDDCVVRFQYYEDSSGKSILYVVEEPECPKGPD", "assay": "ELISA-type binding of soluble recombinant integrin αvβ3 to immobilized NRG1 fragments", "details": "soluble αvβ3, 1 mM Mn2+, room temperature", "method": "FIG. 1. […] The isolated EGF-like domain of Wt NRG1 was immobilized to wells of 96-well titer plates. The concentrations of the coating solution are shown. Soluble recombinant integrin αvβ3 (5 μg/ml) was added to the wells in the presence of 1 mM Mn^2+ and incubated for 2 h at room temperature. After washing the wells bound αvβ3 was determined by using anti-β3 antibody and HRP-conjugated anti-mouse IgG. The data is shown as means+/−SEM of triplicate experiments. FIG. 7. […] Wt GST-NRG1 (175-222) and the 2KE mutant of GST-NRG1 (175-222) were immobilized to wells of 96-well titer plates. The concentrations of the coating solution are shown. Soluble recombinant integrin αvβ3 (5 μg/ml) was added to the wells in the presence of 1 mM Mn^2+ and incubated for 2 h at room temperature. After washing, the wells bound αvβ3 was determined by using anti-β3 antibody and HRP-conjugated anti-mouse IgG. The data are shown as means+/−SD of triplicate experiments. […] Direct αvβ3-NRG (175-222) interaction: It has been well established that the EGF-like domain of the NRGs is sufficient to specifically activate ErbB receptors and to induce cellular responses in culture. To generate GST-NRG1 EGF-like domain fusion protein, the cDNA fragment of the EGF-like domain of NRG1 was amplified by PCR and subcloned into PGEX-2T vector to generate GST-NRG1 EGF-like domain fusion protein (designated GST-NRG1 (175-222)) in E. coli BL21. The fusion protein was purified in glutathione-affinity chromatography. The affinity resin was extensively washed with 1% Triton X-114 to remove endotoxin before eluting the protein. It was tested, in the present invention, whether soluble recombinant integrin αvβ3 binds to GST-NRG1 (175-222) that is immobilized to plastic wells (ELISA-type assay). […] Cell adhesion and soluble integrin binding assays were performed as described previously (Mori, et al., 2008). NRG1α (175-241) was immobilized to wells of 96-well microtiter plate overnight at 4° C. in 0.1 M carbonate buffer, pH 2 9.4. Remaining protein binding sites were blocked by incubating with 200 μl of 0.1% BSA in PBS for 60 min at room temperature. Wells were then incubated with soluble integrin αvβ3 in 50 μl in Hepes-Tyrode's buffer supplemented with 1 mM Mn2+ at room temperature for 60 min. After rinsing the wells with the same buffer, bound integrins were determined by horseradish peroxidase (HRP)-conjugated anti-His tag mouse IgG and substrate 3,3′,5,5′-tetramethylbenzidine of HRP."}, "[1]": {"target": "T2, K562 cells that express human αvβ3 (αvβ3-K562) (Homo sapiens, UniProt P05106+P06756)", "T2 construct": "expressed in transfected cells; host or cells: K562", "T2 sequence (P06756 31-1048)": "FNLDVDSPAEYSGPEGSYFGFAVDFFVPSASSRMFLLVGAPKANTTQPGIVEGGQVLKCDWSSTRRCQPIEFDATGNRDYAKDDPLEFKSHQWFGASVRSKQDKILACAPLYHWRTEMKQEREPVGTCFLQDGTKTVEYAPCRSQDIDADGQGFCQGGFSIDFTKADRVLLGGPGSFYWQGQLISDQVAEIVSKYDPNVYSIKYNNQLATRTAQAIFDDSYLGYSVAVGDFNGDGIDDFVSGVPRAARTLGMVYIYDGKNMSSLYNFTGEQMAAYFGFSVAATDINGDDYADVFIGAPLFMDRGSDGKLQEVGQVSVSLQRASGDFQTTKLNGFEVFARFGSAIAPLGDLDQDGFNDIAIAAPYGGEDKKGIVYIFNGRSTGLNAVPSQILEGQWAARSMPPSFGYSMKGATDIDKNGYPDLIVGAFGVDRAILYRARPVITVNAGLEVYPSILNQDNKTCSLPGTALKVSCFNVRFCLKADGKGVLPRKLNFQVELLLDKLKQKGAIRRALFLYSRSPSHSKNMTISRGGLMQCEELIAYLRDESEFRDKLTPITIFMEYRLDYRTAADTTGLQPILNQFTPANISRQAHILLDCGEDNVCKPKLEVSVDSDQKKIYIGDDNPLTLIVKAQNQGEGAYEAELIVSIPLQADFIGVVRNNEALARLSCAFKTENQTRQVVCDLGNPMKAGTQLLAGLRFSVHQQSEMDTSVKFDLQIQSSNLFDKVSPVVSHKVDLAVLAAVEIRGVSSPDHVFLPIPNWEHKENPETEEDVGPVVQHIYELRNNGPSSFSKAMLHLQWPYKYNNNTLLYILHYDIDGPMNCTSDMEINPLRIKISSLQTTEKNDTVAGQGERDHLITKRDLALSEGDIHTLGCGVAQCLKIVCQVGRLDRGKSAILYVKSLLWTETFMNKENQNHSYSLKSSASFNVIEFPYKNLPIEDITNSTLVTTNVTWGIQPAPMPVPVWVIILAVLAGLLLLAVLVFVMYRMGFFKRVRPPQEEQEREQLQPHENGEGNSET", "T2 sequence (P05106 27-788)": "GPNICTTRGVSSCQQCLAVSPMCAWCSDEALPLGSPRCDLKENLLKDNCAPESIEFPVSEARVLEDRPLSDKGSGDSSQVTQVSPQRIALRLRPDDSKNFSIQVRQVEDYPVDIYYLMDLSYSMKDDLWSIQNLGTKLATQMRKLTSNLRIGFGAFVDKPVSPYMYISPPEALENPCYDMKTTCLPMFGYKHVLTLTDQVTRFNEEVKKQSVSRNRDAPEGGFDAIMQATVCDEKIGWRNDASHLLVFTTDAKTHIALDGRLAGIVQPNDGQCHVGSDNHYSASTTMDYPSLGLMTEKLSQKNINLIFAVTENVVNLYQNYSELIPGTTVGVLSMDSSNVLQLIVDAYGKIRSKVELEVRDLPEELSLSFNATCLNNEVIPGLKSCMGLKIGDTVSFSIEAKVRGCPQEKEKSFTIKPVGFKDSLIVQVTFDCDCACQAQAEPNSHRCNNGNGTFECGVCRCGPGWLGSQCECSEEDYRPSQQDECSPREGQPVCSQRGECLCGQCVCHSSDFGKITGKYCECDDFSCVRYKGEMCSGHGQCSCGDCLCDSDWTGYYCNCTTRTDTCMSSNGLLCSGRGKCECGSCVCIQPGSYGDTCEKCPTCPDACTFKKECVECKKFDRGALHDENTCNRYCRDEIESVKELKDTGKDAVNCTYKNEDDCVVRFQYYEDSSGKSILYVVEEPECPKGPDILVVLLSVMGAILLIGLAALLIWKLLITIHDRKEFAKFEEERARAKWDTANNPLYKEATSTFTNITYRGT", "assay": "Cell adhesion assay, αvβ3-K562 cells", "format": "cell-based", "method": "FIG. 5. […] Adhesion assays was performed using αvβ3-K562 (left) or mock transfected cells (right) as described herein. The data is shown as means+/−SEM of triplicate experiments.\nCHO or K562 cells expressing different recombinant integrins were previously known and available (Zhang et al. 1998; Tarui et al. 2006). Labeling of proteins with FITC or […] was performed according to manufacturers' instructions. Flow cytometry was performed as described above. Also, adhesion assays as described above were used to confirm the findings using flow cytometry.\n(§1) Cell adhesion and soluble integrin binding assays were performed as described previously (Mori, et al., 2008). NRG1α (175-241) was immobilized to wells of 96-well microtiter plate overnight at 4° C. in 0.1 M carbonate buffer, pH 2 9.4. Remaining protein binding sites were blocked by incubating with 200 μl of 0.1% BSA in PBS for 60 min at room temperature. Wells were then incubated with soluble integrin αvβ3 in 50 μl in Hepes-Tyrode's buffer supplemented with 1 mM Mn2+ at room temperature for 60 min. After rinsing the wells with the same buffer, bound integrins were determined by horseradish peroxidase (HRP)-conjugated anti-His tag mouse IgG and substrate 3,3′,5,5′-tetramethylbenzidine of HRP."}, "[2]": {"target": "T3, CHO cells expressing β1-3-1 (β1-3-1-CHO cells) (Homo sapiens, UniProt P05556, DEL209-212/INS207YDMKT)", "T3 construct": "expressed in transfected cells; host or cells: CHO", "T3 sequence (P05556 with tags, fused parts or gaps INS207YDMKT/DEL209-212)": "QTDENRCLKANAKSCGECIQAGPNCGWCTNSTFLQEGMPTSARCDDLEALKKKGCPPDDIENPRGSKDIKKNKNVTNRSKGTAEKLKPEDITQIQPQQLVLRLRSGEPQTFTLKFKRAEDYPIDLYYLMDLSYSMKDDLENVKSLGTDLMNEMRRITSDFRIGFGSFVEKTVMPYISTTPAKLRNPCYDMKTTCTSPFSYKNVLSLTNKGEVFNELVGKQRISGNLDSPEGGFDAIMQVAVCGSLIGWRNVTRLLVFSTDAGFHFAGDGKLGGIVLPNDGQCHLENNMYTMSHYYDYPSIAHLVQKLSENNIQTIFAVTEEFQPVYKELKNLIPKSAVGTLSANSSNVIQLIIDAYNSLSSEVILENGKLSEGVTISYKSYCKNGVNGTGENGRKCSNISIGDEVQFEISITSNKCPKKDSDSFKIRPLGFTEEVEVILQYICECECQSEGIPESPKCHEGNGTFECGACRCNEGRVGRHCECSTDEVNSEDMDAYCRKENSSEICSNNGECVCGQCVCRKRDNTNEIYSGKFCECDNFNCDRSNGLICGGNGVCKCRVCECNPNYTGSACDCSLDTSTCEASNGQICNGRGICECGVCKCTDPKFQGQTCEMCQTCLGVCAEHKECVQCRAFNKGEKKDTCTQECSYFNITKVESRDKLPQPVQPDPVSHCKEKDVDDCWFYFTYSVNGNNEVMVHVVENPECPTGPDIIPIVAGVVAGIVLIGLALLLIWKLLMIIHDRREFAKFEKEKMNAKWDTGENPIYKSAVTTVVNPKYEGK", "assay": "Cell adhesion assay, β1-3-1-CHO cells", "format": "cell-based", "method": "FIG. 3. Adhesion of CHO cells that express human β1 (β1-CHO) or β1-3-1 (β1-3-1-CHO) to wt NRG1 (175-222). The β1-3-1 mutation changes the specificity of β1 integrins to that of β3 integrins. Cell adhesion was performed as described herein. β1-3-1-CHO cells adhered to wt NRG1 (175-222) and this binding was blocked by anti-human β1 antibody AIIB2, but not by purified mouse IgG (mIgG). BSA: BSA as a control was coated instead of NRG1 (175-222).\nFIG. 6. […] Adhesion assays was performed using β1-3-1-CHO cells as described herein. Data are shown as means+/−SEM of triplicate experiments.\nThe β1-3-1 mutation: To determine if NRG1 (175-222) binds to αvβ3 like other known αvβ3 ligands (e.g., vitronectin and fibrinogen), a mutant of β1 having a ligand specificity of β3 (Takagi et al. 1997) was used. […] It was shown that when a disulfide-linked five-residue sequence of β1 I-like domain (residues 177-183) of αvβ1 is switched with a corresponding sequence in β3 integrin (designated the β1-3-1 mutant), ligand-binding specificity of the mutated integrin αvβ1-3-1 is altered to that of αvβ3 (Takagi et al. 1997). […] The adhesion of β1-3-1-CHO cells to NRG1 (175-222) was blocked anti-β1 antibody AIIB2 (FIG. 3). […] These findings indicate that NRG1 (175-222) binds to the ligand-binding site of αvβ3, and that the specificity loop plays a role in NRG1 binding to αvβ3.\nas §1"}}, "note": "Substitutions are numbered along the chain they refer to. Entries after “also recorded” stand apart in the source; their conditions may differ. Where two headings read alike, the source gives them in different places.", "data": [{"molecule": "3KE (175-222): NRG1 (175-222) with Lys181/Lys185/Lys187 mutated to Glu; GTSHLVECAEEEETFCVNGGECFMVKDLSNPSRYLCKCQPGFTGARCT (SEQ ID NO:11) (integrin-binding site within human neuregulin, 3KE mutant, short version)", "values": [{"measurement": "Binding of soluble recombinant integrin αvβ3 to the immobilized protein", "setting": "integrin αvβ3", "result": "bound to the 3KE (175-222) mutant (isolated EGF-like domain) in a dose-dependent manner; also recorded: much lower affinity to αvβ3"}, {"measurement": "Adhesion of αvβ3-K562 cells to the immobilized protein", "setting": "[1]", "result": "did not bind; also recorded: defective in binding to αvβ3-K562 cells"}, {"measurement": "Adhesion of β1-3-1-CHO cells to the immobilized protein", "setting": "[2]", "result": "defective in binding to β1-3-1 integrins"}]}, {"molecule": "wt NRG1 (175-222): wild type human neuregulin 1 fragment, EGF-like domain, residues 175-222 of SEQ ID NO:4 (SEQ ID NO:3) (GTSHLVKCAEKEKTFCVNGGECFMVKDLSNPSRYLCKCQPGFTGARCT; integrin-binding site within human neuregulin 1 EGF-like region and portion of alpha domain, residues 175-222 of human neuregulin 1 alpha) [reference compound]", "values": [{"measurement": "Binding of soluble recombinant integrin αvβ3 to the immobilized protein", "setting": "integrin αvβ3; listed as NRG (175-222)", "result": "bound to recombinant soluble αvβ3"}, {"measurement": "Adhesion of αvβ3-K562 cells to the immobilized protein", "setting": "[1]", "result": "bound to wt NRG1 (175-222)"}, {"measurement": "Adhesion of αvβ3-K562 cells to the immobilized protein", "setting": "[1]; listed as NRG1 (175-222)", "result": "adhered in a dose-dependent manner"}, {"measurement": "Adhesion of β1-3-1-CHO cells to the immobilized protein", "setting": "[2]", "result": "bound to NRG1 (175-222)"}]}, {"molecule": "B1", "values": [{"measurement": "Binding of soluble recombinant integrin αvβ3 to the immobilized protein", "setting": "integrin αvβ3", "result": "bound to GST-NRG1α (175-241) (isolated EGF-like domain) in a dose-dependent manner"}, {"measurement": "Adhesion of αvβ3-K562 cells to the immobilized protein", "setting": "[1]; listed as NRG1α (175-241)", "result": "adhered in a dose-dependent manner"}, {"measurement": "Adhesion of αvβ3-K562 cells to the immobilized protein", "setting": "[1]; listed as wt NRG1α (175-241)", "result": "bound to wt NRG1α (175-241)"}, {"measurement": "Adhesion of β1-3-1-CHO cells to the immobilized protein", "setting": "[2]; listed as NRG1α (175-241)", "result": "bound to NRG1α (175-241)"}, {"measurement": "Adhesion of β1-3-1-CHO cells to the immobilized protein", "setting": "[2]; listed as wt NRG1α (175-241)", "result": "bound to wt NRG1α (175-241)"}]}, {"molecule": "B2", "values": [{"measurement": "Adhesion of αvβ3-K562 cells to the immobilized protein", "setting": "[1]", "result": "little or no adhesion"}, {"measurement": "Adhesion of β1-3-1-CHO cells to the immobilized protein", "setting": "[2]", "result": "little or no adhesion"}]}]}
